Key:
[1] = tested on: mouse models of LPS-induced ALI; conditions: previous studies; cited from earlier work
Prdx6 = target: T1, Prdx6 (Mus musculus, UniProt O08709); assay: aiPLA2 (Prdx6-PLA2) activity of mouse lung homogenate after IT or IV injection of PIP; type: in vivo; conditions: Table 6
T1 construct: from tissue; host or cells: mouse lung homogenate (wild type mice)
T1 sequence (O08709 1-224): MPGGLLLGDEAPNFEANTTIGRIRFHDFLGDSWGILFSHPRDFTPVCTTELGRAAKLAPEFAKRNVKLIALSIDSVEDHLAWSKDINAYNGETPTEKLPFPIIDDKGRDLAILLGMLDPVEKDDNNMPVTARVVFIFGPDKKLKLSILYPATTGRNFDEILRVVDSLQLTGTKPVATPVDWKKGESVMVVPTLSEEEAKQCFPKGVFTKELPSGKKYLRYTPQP
Protocol: FIG. 6: PIP-2 in liposomes was administered to mice either intratracheally (IT) or intravenously (IV) at 0 time. Lungs were harvested at intervals between 4 and 72 h after the PIP-2 administration, homogenized, and analyzed for Prdx6-PLA2 activity. PIP-2 is effective by either the IT or IV route with a calculated ½ time for recovery of ˜50 h. Results are mean+SE for N=3-4.
PIP-2 in liposomes injected IV or IT inhibits Prdx6 activity of the lung homogenate. Maximal inhibition was seen within 4 hours after administration of PIP-2. Recovery from inhibition began at ˜36 hours and was complete by 48 hours. Results are similar for PIP-1,2,4 (PIP-3 and -5 were not tested). […] Effectiveness requires liposomes for peptide delivery. Inhibition after IT or IV administration was similar.

recombinant hPrdx6 = target: T2, recombinant hPrdx6 (Homo sapiens, UniProt P30041); assay: aiPLA2 activity of recombinant human Prdx6 in presence of peptide; type: biochemical; conditions: for aiPLA2 activity of recombinant hPrdx6: Table 1, hPrdx6 only (no peptide) 93.4; for aiPLA2 activity of human recombinant protein: Table 2, hPrdx6 only 92.0; for aiPLA2 activity of human recombinant Prdx6: Table 3, hPrdx6 only 99.91
T2 sequence (P30041 1-224): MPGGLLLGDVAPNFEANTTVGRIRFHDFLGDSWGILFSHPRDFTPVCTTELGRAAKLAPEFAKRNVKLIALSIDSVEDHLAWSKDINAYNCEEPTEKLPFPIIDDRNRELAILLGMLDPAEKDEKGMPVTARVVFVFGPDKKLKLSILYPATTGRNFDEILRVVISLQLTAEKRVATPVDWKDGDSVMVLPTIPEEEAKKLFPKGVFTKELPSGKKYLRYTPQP

NOX2 = assay: ROS production (Amplex red) of isolated perfused mouse lung stimulated with angiotensin II; type: in vivo; conditions: mouse, ex_vivo
Protocol: FIGS. 5A and 5B: PIP-2, incorporated within liposomes, was instilled intratracheally prior to lung isolation. FIG. 5A: Isolated lungs were perfused in a recirculating system with artificial medium. NOX2 activity was stimulated by addition of angiotensin II (Ang II). Amplex red along with horseradish peroxidase were added to the perfusate for detection of ROS production. Aliquots of perfusate were analyzed at intervals by spectrophotometry to determine oxidation of amplex red, indicating ROS production. Results are mean±SE for N=3-4. FIG. 5B: Mice were sacrificed at 6, 12, or 24 h after LPS administration ([…]) and lungs were perfused in situ for 15 min with saline solution containing a fluorophore (difluorofluorescein diacetate, DFFDA). Lungs then were homogenized and fluorescence of the lung homogenate was determined as an index of ROS production. Results for FIG. 5A & FIG. 5B are mean±SE for N=4. *P<0.05 vs corresponding LPS and LPS+PIP-2; § P<0.05 vs 12 h and 24 h LPS; ΔP<0.05 vs corresponding LPS.
FIG. 8: PLA2 inhibitory peptide (PIP-2) inhibits ROS production stimulated by angiotensin II (Ang II) in isolated perfused mouse lung. PIP-2 (2 μg/g body weight) was administered to intact wild type (WT) mice by the IV route. […] After 30 mins, lungs were isolated from anesthesized mice and perfused in a recirculating system with added Ang II ([…]) as a Nox2 activator and Amplex red plus horseradish peroxidase to detect perfusate ROS. WT basal lungs were not stimulated with Ang II. After a 15 min equilibration period (called zero time), aliquots were taken at 15 min intervals for analysis of fluorescence. Each plotted point represents the mean±SE for n=3. The lines were drawn by the least mean squares method. The mean rates of ROS […] calculated from the slope of each line are indicated in parentheses. *P<0.05 vs the other 3 slopes.
FIG. 10: Effect of liposome composition on delivery of PIP-2 to lungs after IV administration. […]
The effect of the PIPs on ROS production in control (untreated) lungs was determined in vitro with isolated perfused lungs. […] The basal rate of ROS production was evaluated with WT lungs that were perfused in the absence of AngII. […] Aliquots of perfusate were taken at 15 min intervals and analyzed by fluorescence for resorufin (λexcitation 568 nm, λemission 581 nm), the product of Amplex red oxidation. The rate of Amplex red oxidation was calculated and expressed as arbitrary fluorescence units (AFU) with normalization to mouse body wt. There was a low rate of Amplex red oxidation in the absence of HRP in the perfusate (˜7% of the AngII-stimulated fluorescence), indicating a non-ROS-mediated oxidation of the fluorophore; this value was subtracted to obtain the reported values.

Row | Compound | aiPLA2 activity of recombinant hPrdx6 (recombinant hPrdx6) | aiPLA2 activity of human recombinant Prdx6 (recombinant hPrdx6) | further results
1 | CCCCCCCCCCCCCCCCOCC(COCC(F)(F)F)OP(=O)(O)OC (centres unmarked) [MJ33] |  |  | protection in LPS-induced ALI [1]: protection
2 | DEELQTEL [SEQ ID NO: 18] | 93.6 nmol/min/mg prot. |  | 
3 | DEELQTELYEI (Inhibitory peptide.) [SEQ ID NO: 17] | 94.9 nmol/min/mg prot. |  | 
4 | DEELQTELYEIK (Inhibitory peptide.) [SEQ ID NO: 16] | 95.7 nmol/min/mg prot. |  | 
5 | DEELQTELYEIKHQ (Inhibitory peptide.) [SEQ ID NO: 15] | 102 nmol/min/mg prot. |  | 
6 | ELQTELYEIKHQIL (Inhibitory peptide.) [SEQ ID NO: 10] | 33.2 nmol/min/mg prot. |  | 
7 | ELYEIKHQI (Inhibitory peptide.) [SEQ ID NO: 22] |  |  | aiPLA2 activity of human recombinant protein (recombinant hPrdx6): 93.5 nmol/min/mg prot.
8 | ELYEIKHQIL (Inhibitory peptide.) [SEQ ID NO: 12] | 28.6 nmol/min/mg prot. |  | 
9 | IKHQIL (DEELQTELYEIKHQ; Inhibitory peptide.) [SEQ ID NO: 14] | 97.1 nmol/min/mg prot. |  | 
10 | LHDFRHQI [SEQ ID NO: 21] |  |  | aiPLA2 activity of human recombinant protein (recombinant hPrdx6): 93.6 nmol/min/mg prot.
11 | LYEIKHQI [SEQ ID NO: 23] |  |  | aiPLA2 activity of human recombinant protein (recombinant hPrdx6): 92.1 nmol/min/mg prot.
12 | QTELYEIKHQIL (Inhibitory peptide.) [SEQ ID NO: 11] | 31.5 nmol/min/mg prot. |  | 
13 | TLHDFRHQI (Inhibitory peptide.) [SEQ ID NO: 20] |  |  | aiPLA2 activity of human recombinant protein (recombinant hPrdx6): 89.6 nmol/min/mg prot.
14 | TLHDFRHQIL (Inhibitory peptide.) [SEQ ID NO: 19] |  |  | aiPLA2 activity of human recombinant protein (recombinant hPrdx6): 31.5 nmol/min/mg prot.
15 | YEIKHQIL (Inhibitory peptide.) [SEQ ID NO: 13] | 94.4 nmol/min/mg prot. |  | 

Now from value to compound, other results behind:

Row | aiPLA2 activity of recombinant hPrdx6 (recombinant hPrdx6) | aiPLA2 activity of human recombinant Prdx6 (recombinant hPrdx6) | Compound | further results
16 | 45.0 nmol/min/mg prot. |  | DEELQATLHDFRHQIL (Inhibitory peptide.) [PIP-1, 16 residue human peptide] | Prdx6-PLA2 activity of mouse lung homogenate (Prdx6; IT, lungs lavaged prior to assay, 0 post injection): 9.0 ± 0.2 nmol/hr/mg protein; Prdx6-PLA2 activity of mouse lung homogenate (Prdx6; IT, lungs lavaged, 4 hr post injection): 1.6 ± 0.1 nmol/hr/mg protein; Prdx6-PLA2 activity of mouse lung homogenate (Prdx6; IT, lungs lavaged, 12 hr post injection): 1.6 ± 0.1 nmol/hr/mg protein; Prdx6-PLA2 activity of mouse lung homogenate (Prdx6; IT, lungs lavaged, 24 hr post injection): 1.7 ± 0.2 nmol/hr/mg protein; Prdx6-PLA2 activity of mouse lung homogenate (Prdx6; IT, lungs lavaged, 48 hr post injection): 2.9 ± 0.2 nmol/hr/mg protein; Prdx6-PLA2 activity of mouse lung homogenate (Prdx6; IV, 0 post injection): 8.8 ± 0.3 nmol/hr/mg protein; Prdx6-PLA2 activity of mouse lung homogenate (Prdx6; IV, 4 hr post injection): 1.4 nmol/hr/mg protein; Prdx6-PLA2 activity of mouse lung homogenate (Prdx6; IV, 12 hr post injection): 1.5 nmol/hr/mg protein; Prdx6-PLA2 activity of mouse lung homogenate (Prdx6; IV, 24 hr post injection): 1.8 ± 0.1 nmol/hr/mg protein
17 | 32.0 nmol/min/mg prot. |  | DEELQTELYEIKHQIL (Inhibitory peptide.) [PIP-3, 16 residue rat, mouse peptide] | aiPLA2 activity of recombinant hPrdx6 (recombinant hPrdx6; listed as SEQ ID NO: 9): 20.1 nmol/min/mg prot.; aiPLA2 activity of human recombinant protein (recombinant hPrdx6): 32.0 nmol/min/mg prot.
18 |  | 97.95 nmol/min/mg prot. | LFKLEHQIL [SN023] | 
19 |  | 102.04 nmol/min/mg prot. | LHDFRDQIL [SN024] | 
20 |  | 98.97 nmol/min/mg prot. | LHDFRHNIL [SN026] | 
21 |  | 102.45 nmol/min/mg prot. | LHDFRHQLL (LHDFRHQTL; Inhibitory peptide.) [SN028] | 
22 |  | 101.34 nmol/min/mg prot. | LHDFRPQIL [SN025] | 
23 |  | 99.42 nmol/min/mg prot. | LHEFKHQIL [SN022] | 
24 |  | 97.67 nmol/min/mg prot. | LKIEYHQIL [SN019] | 
25 |  | 98.97 nmol/min/mg prot. | LRFDHHQIL [SN020] | 
26 |  | 29.74 nmol/min/mg prot. | LYDIRHQIL (Inhibitory peptide.) [PIP-5] | ROS production by AngII-activated NOX2 in the isolated mouse lung (NOX2): inhibit ROS production

Reference: patent US12070483B2, “Compositions and methods for treatment of acute lung injury” (THE TRUSTEES OF THE UNIVERSITY OF PENNSYLVANIA, priority 2018, dated 2024)
